Experimental findings from article doi:10.1101/2024.11.13.623448 are described below.

Assay [1] deals with nucleosome core particle: Cse4, H2A, H2B, H4 histone octamer wrapped with Widom 601 DNA (S. cerevisiae | K. lactis) (UniProt P36012). Nature of the assay: optical trap bead-microtubule binding assay; His6-NCPs (40 nM) held on polystyrene beads by anti-His6 antibody; 10 nM OA or 20 nM Mif2, 10 nM 2D-MIND, 10 nM Ndc80c, 5 nM Dam1c free in solution; bead brought to the dynamic plus end of a surface-anchored microtubule and released from the trap; 1x BRB80, 1 mM GTP, 16 uM tubulin, room temperature.

Assay [2] has as its target nucleosome core particle: Cse4, H2A, H2B, H4 histone octamer wrapped with chimeric centromeric DNA (CCEN) (S. cerevisiae | K. lactis) (UniProt P36012). Described as above.

“Mif2-linker-(27-392)MBP (from UniProt P35201 1-549) (natural protein)”: the percent of beads that bound microtubules in assay [1] and in assay [2] was greater than 78% in each case.
